*1 amine or outer side, *2 acyl side, *3 side chain or, on linkers, in order; H or OH if unused. Side-chain parts run from the residue outwards. The star is where a group is joined. C18 diacid = O=C(O)CCCCCCCCCCCCCCCCC(=O)*; γGlu = O=C(O)[C@H](CCC(=O)[*:2])N[*:1]; Isovaleryl = CC(C)CC(=O)*; AEEA = NCCOCCOCC(=O)O
T1: human neuropeptide Y2 receptor (human, UniProt P49146 1-381)
T1 construct: whole, on cells; also called hNPY2 receptor; hNPY2-R
T1 sequence (looked up): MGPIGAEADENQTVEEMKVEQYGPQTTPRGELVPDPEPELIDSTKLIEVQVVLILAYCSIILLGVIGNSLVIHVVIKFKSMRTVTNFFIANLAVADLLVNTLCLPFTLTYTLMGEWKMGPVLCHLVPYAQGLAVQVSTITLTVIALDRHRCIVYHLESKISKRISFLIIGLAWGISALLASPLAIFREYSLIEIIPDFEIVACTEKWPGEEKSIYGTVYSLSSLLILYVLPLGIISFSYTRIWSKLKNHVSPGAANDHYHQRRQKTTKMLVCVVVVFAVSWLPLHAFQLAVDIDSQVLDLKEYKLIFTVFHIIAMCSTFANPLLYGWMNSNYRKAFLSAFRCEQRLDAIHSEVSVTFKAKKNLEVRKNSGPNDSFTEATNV

B1: Compound 9 (peptide)
peptide: Isovaleryl-APEK([AEEA-AEEA-γGlu-C18 diacid])PEEDASPEEIQRYYVELRHYYNWLTRQRY-NH2
SMILES: CC[C@H](C)[C@H](NC(=O)[C@H](CCC(=O)O)NC(=O)[C@H](CCC(=O)O)NC(=O)[C@@H]1CCCN1C(=O)[C@H](CO)NC(=O)[C@H](C)NC(=O)[C@H](CC(=O)O)NC(=O)[C@H](CCC(=O)O)NC(=O)[C@H](CCC(=O)O)NC(=O)[C@@H]1CCCN1C(=O)[C@H](CCCCNC(=O)COCCOCCNC(=O)COCCOCCNC(=O)CC[C@H](NC(=O)CCCCCCCCCCCCCCCCC(=O)O)C(=O)O)NC(=O)[C@H](CCC(=O)O)NC(=O)[C@@H]1CCCN1C(=O)[C@H](C)NC(=O)CC(C)C)C(=O)N[C@@H](CCC(N)=O)C(=O)N[C@@H](CCCNC(=N)N)C(=O)N[C@@H](Cc1ccc(O)cc1)C(=O)N[C@@H](Cc1ccc(O)cc1)C(=O)N[C@H](C(=O)N[C@@H](CCC(=O)O)C(=O)N[C@@H](CC(C)C)C(=O)N[C@@H](CCCNC(=N)N)C(=O)N[C@@H](Cc1c[nH]cn1)C(=O)N[C@@H](Cc1ccc(O)cc1)C(=O)N[C@@H](Cc1ccc(O)cc1)C(=O)N[C@@H](CC(N)=O)C(=O)N[C@@H](Cc1c[nH]c2ccccc12)C(=O)N[C@@H](CC(C)C)C(=O)N[C@H](C(=O)N[C@@H](CCCNC(=N)N)C(=O)N[C@@H](CCC(N)=O)C(=O)N[C@@H](CCCNC(=N)N)C(=O)N[C@@H](Cc1ccc(O)cc1)C(N)=O)[C@@H](C)O)C(C)C
B2: Compound 10 (peptide)
peptide: Isovaleryl-APEK([AEEA-AEEA-γGlu-C18 diacid])PEADASPEETQRYYVSLRHYYNWLTRQRY-NH2
SMILES: CC(C)CC(=O)N[C@@H](C)C(=O)N1CCC[C@H]1C(=O)N[C@@H](CCC(=O)O)C(=O)N[C@@H](CCCCNC(=O)COCCOCCNC(=O)COCCOCCNC(=O)CC[C@H](NC(=O)CCCCCCCCCCCCCCCCC(=O)O)C(=O)O)C(=O)N1CCC[C@H]1C(=O)N[C@@H](CCC(=O)O)C(=O)N[C@@H](C)C(=O)N[C@@H](CC(=O)O)C(=O)N[C@@H](C)C(=O)N[C@@H](CO)C(=O)N1CCC[C@H]1C(=O)N[C@@H](CCC(=O)O)C(=O)N[C@@H](CCC(=O)O)C(=O)N[C@H](C(=O)N[C@@H](CCC(N)=O)C(=O)N[C@@H](CCCNC(=N)N)C(=O)N[C@@H](Cc1ccc(O)cc1)C(=O)N[C@@H](Cc1ccc(O)cc1)C(=O)N[C@H](C(=O)N[C@@H](CO)C(=O)N[C@@H](CC(C)C)C(=O)N[C@@H](CCCNC(=N)N)C(=O)N[C@@H](Cc1c[nH]cn1)C(=O)N[C@@H](Cc1ccc(O)cc1)C(=O)N[C@@H](Cc1ccc(O)cc1)C(=O)N[C@@H](CC(N)=O)C(=O)N[C@@H](Cc1c[nH]c2ccccc12)C(=O)N[C@@H](CC(C)C)C(=O)N[C@H](C(=O)N[C@@H](CCCNC(=N)N)C(=O)N[C@@H](CCC(N)=O)C(=O)N[C@@H](CCCNC(=N)N)C(=O)N[C@@H](Cc1ccc(O)cc1)C(N)=O)[C@@H](C)O)C(C)C)[C@@H](C)O
B3: Compound 13 (peptide)
peptide: Isovaleryl-APEK([AEEA-AEEA-γGlu-C18 diacid])PEEDAAPEELQQYYVSLRHYYNWLTRQRY-NH2
SMILES: CC(C)CC(=O)N[C@@H](C)C(=O)N1CCC[C@H]1C(=O)N[C@@H](CCC(=O)O)C(=O)N[C@@H](CCCCNC(=O)COCCOCCNC(=O)COCCOCCNC(=O)CC[C@H](NC(=O)CCCCCCCCCCCCCCCCC(=O)O)C(=O)O)C(=O)N1CCC[C@H]1C(=O)N[C@@H](CCC(=O)O)C(=O)N[C@@H](CCC(=O)O)C(=O)N[C@@H](CC(=O)O)C(=O)N[C@@H](C)C(=O)N[C@@H](C)C(=O)N1CCC[C@H]1C(=O)N[C@@H](CCC(=O)O)C(=O)N[C@@H](CCC(=O)O)C(=O)N[C@@H](CC(C)C)C(=O)N[C@@H](CCC(N)=O)C(=O)N[C@@H](CCC(N)=O)C(=O)N[C@@H](Cc1ccc(O)cc1)C(=O)N[C@@H](Cc1ccc(O)cc1)C(=O)N[C@H](C(=O)N[C@@H](CO)C(=O)N[C@@H](CC(C)C)C(=O)N[C@@H](CCCNC(=N)N)C(=O)N[C@@H](Cc1c[nH]cn1)C(=O)N[C@@H](Cc1ccc(O)cc1)C(=O)N[C@@H](Cc1ccc(O)cc1)C(=O)N[C@@H](CC(N)=O)C(=O)N[C@@H](Cc1c[nH]c2ccccc12)C(=O)N[C@@H](CC(C)C)C(=O)N[C@H](C(=O)N[C@@H](CCCNC(=N)N)C(=O)N[C@@H](CCC(N)=O)C(=O)N[C@@H](CCCNC(=N)N)C(=O)N[C@@H](Cc1ccc(O)cc1)C(N)=O)[C@@H](C)O)C(C)C
B4: Compound 14 (peptide)
peptide: Isovaleryl-APEK([AEEA-AEEA-γGlu-C18 diacid])PEADATPEELQRYYVSLRHYYNWLTRQRY-NH2
SMILES: CC(C)CC(=O)N[C@@H](C)C(=O)N1CCC[C@H]1C(=O)N[C@@H](CCC(=O)O)C(=O)N[C@@H](CCCCNC(=O)COCCOCCNC(=O)COCCOCCNC(=O)CC[C@H](NC(=O)CCCCCCCCCCCCCCCCC(=O)O)C(=O)O)C(=O)N1CCC[C@H]1C(=O)N[C@@H](CCC(=O)O)C(=O)N[C@@H](C)C(=O)N[C@@H](CC(=O)O)C(=O)N[C@@H](C)C(=O)N[C@H](C(=O)N1CCC[C@H]1C(=O)N[C@@H](CCC(=O)O)C(=O)N[C@@H](CCC(=O)O)C(=O)N[C@@H](CC(C)C)C(=O)N[C@@H](CCC(N)=O)C(=O)N[C@@H](CCCNC(=N)N)C(=O)N[C@@H](Cc1ccc(O)cc1)C(=O)N[C@@H](Cc1ccc(O)cc1)C(=O)N[C@H](C(=O)N[C@@H](CO)C(=O)N[C@@H](CC(C)C)C(=O)N[C@@H](CCCNC(=N)N)C(=O)N[C@@H](Cc1c[nH]cn1)C(=O)N[C@@H](Cc1ccc(O)cc1)C(=O)N[C@@H](Cc1ccc(O)cc1)C(=O)N[C@@H](CC(N)=O)C(=O)N[C@@H](Cc1c[nH]c2ccccc12)C(=O)N[C@@H](CC(C)C)C(=O)N[C@H](C(=O)N[C@@H](CCCNC(=N)N)C(=O)N[C@@H](CCC(N)=O)C(=O)N[C@@H](CCCNC(=N)N)C(=O)N[C@@H](Cc1ccc(O)cc1)C(N)=O)[C@@H](C)O)C(C)C)[C@@H](C)O
B5: Compound 15 (peptide)
peptide: Isovaleryl-APEK([AEEA-AEEA-γGlu-C18 diacid])PEEDASPEEIQRYEVSLRHYYNWLTRQRY-NH2
SMILES: CC[C@H](C)[C@H](NC(=O)[C@H](CCC(=O)O)NC(=O)[C@H](CCC(=O)O)NC(=O)[C@@H]1CCCN1C(=O)[C@H](CO)NC(=O)[C@H](C)NC(=O)[C@H](CC(=O)O)NC(=O)[C@H](CCC(=O)O)NC(=O)[C@H](CCC(=O)O)NC(=O)[C@@H]1CCCN1C(=O)[C@H](CCCCNC(=O)COCCOCCNC(=O)COCCOCCNC(=O)CC[C@H](NC(=O)CCCCCCCCCCCCCCCCC(=O)O)C(=O)O)NC(=O)[C@H](CCC(=O)O)NC(=O)[C@@H]1CCCN1C(=O)[C@H](C)NC(=O)CC(C)C)C(=O)N[C@@H](CCC(N)=O)C(=O)N[C@@H](CCCNC(=N)N)C(=O)N[C@@H](Cc1ccc(O)cc1)C(=O)N[C@@H](CCC(=O)O)C(=O)N[C@H](C(=O)N[C@@H](CO)C(=O)N[C@@H](CC(C)C)C(=O)N[C@@H](CCCNC(=N)N)C(=O)N[C@@H](Cc1c[nH]cn1)C(=O)N[C@@H](Cc1ccc(O)cc1)C(=O)N[C@@H](Cc1ccc(O)cc1)C(=O)N[C@@H](CC(N)=O)C(=O)N[C@@H](Cc1c[nH]c2ccccc12)C(=O)N[C@@H](CC(C)C)C(=O)N[C@H](C(=O)N[C@@H](CCCNC(=N)N)C(=O)N[C@@H](CCC(N)=O)C(=O)N[C@@H](CCCNC(=N)N)C(=O)N[C@@H](Cc1ccc(O)cc1)C(N)=O)[C@@H](C)O)C(C)C
B6: Compound 16 (peptide)
peptide: Isovaleryl-APEK([AEEA-AEEA-γGlu-C18 diacid])PEEDASPEETQRYYVTLRHYYNWLTRQRY-NH2
SMILES: CC(C)CC(=O)N[C@@H](C)C(=O)N1CCC[C@H]1C(=O)N[C@@H](CCC(=O)O)C(=O)N[C@@H](CCCCNC(=O)COCCOCCNC(=O)COCCOCCNC(=O)CC[C@H](NC(=O)CCCCCCCCCCCCCCCCC(=O)O)C(=O)O)C(=O)N1CCC[C@H]1C(=O)N[C@@H](CCC(=O)O)C(=O)N[C@@H](CCC(=O)O)C(=O)N[C@@H](CC(=O)O)C(=O)N[C@@H](C)C(=O)N[C@@H](CO)C(=O)N1CCC[C@H]1C(=O)N[C@@H](CCC(=O)O)C(=O)N[C@@H](CCC(=O)O)C(=O)N[C@H](C(=O)N[C@@H](CCC(N)=O)C(=O)N[C@@H](CCCNC(=N)N)C(=O)N[C@@H](Cc1ccc(O)cc1)C(=O)N[C@@H](Cc1ccc(O)cc1)C(=O)N[C@H](C(=O)N[C@H](C(=O)N[C@@H](CC(C)C)C(=O)N[C@@H](CCCNC(=N)N)C(=O)N[C@@H](Cc1c[nH]cn1)C(=O)N[C@@H](Cc1ccc(O)cc1)C(=O)N[C@@H](Cc1ccc(O)cc1)C(=O)N[C@@H](CC(N)=O)C(=O)N[C@@H](Cc1c[nH]c2ccccc12)C(=O)N[C@@H](CC(C)C)C(=O)N[C@H](C(=O)N[C@@H](CCCNC(=N)N)C(=O)N[C@@H](CCC(N)=O)C(=O)N[C@@H](CCCNC(=N)N)C(=O)N[C@@H](Cc1ccc(O)cc1)C(N)=O)[C@@H](C)O)[C@@H](C)O)C(C)C)[C@@H](C)O

The binders below were run against T1, human neuropeptide Y2 receptor (assay: radioligand competition (125I-PYY(1-36)), hNPY2R membranes).
Protocol: The filtration RLB assay was carried out in 96-well plates in a final volume of 100 μl per well. Freeze-dried test peptides were dissolved in 100% dimethyl sulfoxide (DMSO) to stock solutions of 1 mM and serial dilutions were performed in assay buffer (50 mM HEPES, 5 mM MgCl₂, 1 mM CaCl₂, pH 7.4) containing 0.2% ovalbumin. […] Next, 80 μL membranes (HTS066M, ChemiSCREEN™ Human Neuropeptide Y2 Receptor Membrane Preparation, CHEMICON) were added to each well to give a final protein concentration of 0.5 μg/well. The plates were sealed and incubated at room temperature for 2 hours in a plate shaker set at 400 rpm. The incubation was stopped by vacuum filtration onto 0.5% poly-ethylene amine (PEI) presoaked GF/C filters using a 96-well FilterMate™ harvester (Perkin Elmer) followed by four washes with 300 μl/well ice-cold wash buffer (50 mM HEPES, 500 mM NaCl, pH7.4). Filter plates were then dried for 60 min at room temperature and the bottom of the plates was sealed with backing tape UniFilter-96. Finally, 50 μl/well scintillation counter cocktail (Microscint20, Packard) was added and the radioactivity was counted in the Packard TopCount NXT scintillation counter. IC₅₀ values (the half maximal inhibitory concentration of the agonist) were calculated by nonlinear regression analysis of sigmoidal dose-response curves.
With B1 the Ki was 1.22 nM.
B2 gave a Ki of 1.28 nM.
For B3, the Ki was 1.29 nM.
B4 showed a Ki of 0.31 nM.
B5 showed a Ki of 2.89 nM.
Binder B6 has a Ki of 3.09 nM.

— US20210139548A1 (published 2021)
